Common to all, as to test: SPR
The target in experiment [1] is T1, PEAK2^IDR1 (human PEAK2 residues 802–1406) (human, UniProt Q86YV5 802-1406, phosphorylated at the tandem site 14-3-3 motif (RAA(pS)SP) as purified from insect cells; biotin (EZ-Link NHS-PEG4-Biotin) where immobilised for SPR).
T1 chain: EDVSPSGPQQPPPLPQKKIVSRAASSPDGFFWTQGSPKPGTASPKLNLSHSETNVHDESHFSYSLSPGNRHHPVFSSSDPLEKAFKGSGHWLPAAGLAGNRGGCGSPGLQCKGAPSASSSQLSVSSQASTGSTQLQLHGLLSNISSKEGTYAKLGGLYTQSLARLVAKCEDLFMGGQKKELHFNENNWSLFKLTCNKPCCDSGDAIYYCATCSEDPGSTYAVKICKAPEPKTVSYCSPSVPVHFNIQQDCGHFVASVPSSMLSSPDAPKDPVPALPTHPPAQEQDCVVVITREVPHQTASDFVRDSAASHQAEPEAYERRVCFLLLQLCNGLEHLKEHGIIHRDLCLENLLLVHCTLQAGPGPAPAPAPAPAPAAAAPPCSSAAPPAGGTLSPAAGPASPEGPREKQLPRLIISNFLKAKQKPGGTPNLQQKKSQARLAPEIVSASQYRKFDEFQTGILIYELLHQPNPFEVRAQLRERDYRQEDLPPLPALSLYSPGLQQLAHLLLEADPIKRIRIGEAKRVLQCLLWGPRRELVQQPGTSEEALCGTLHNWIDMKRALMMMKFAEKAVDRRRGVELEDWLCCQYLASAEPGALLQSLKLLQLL

Experiment [2] addresses T2, PEAK3^FL from insect cells, phosphorylated by Src (human, UniProt Q6ZS72 1-473, phosphotyrosine at 24 (by Src in vitro, MS/MS); phosphoserine at 69; biotin (EZ-Link NHS-PEG4-Biotin)).
T2 chain: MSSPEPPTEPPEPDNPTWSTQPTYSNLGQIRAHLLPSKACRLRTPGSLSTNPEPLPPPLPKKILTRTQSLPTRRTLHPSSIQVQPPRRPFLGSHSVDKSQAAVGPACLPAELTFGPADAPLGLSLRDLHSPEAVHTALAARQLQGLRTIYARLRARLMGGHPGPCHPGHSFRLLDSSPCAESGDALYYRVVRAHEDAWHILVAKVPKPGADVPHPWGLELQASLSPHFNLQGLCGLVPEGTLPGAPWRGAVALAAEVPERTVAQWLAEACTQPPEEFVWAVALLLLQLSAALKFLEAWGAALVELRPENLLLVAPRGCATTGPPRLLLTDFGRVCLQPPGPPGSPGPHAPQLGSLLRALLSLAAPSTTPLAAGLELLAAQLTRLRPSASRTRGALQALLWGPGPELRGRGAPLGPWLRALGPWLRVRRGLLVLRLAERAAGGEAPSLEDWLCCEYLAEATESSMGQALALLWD

The target in experiment [3] is T3, full length PEAK3 from insect cells (PEAK3^FL, S69 phosphorylated) (human, UniProt Q6ZS72 1-473, phosphoserine at 69; biotin (EZ-Link NHS-PEG4-Biotin) where immobilised for SPR).
T3 chain: T2 chain

In experiment [4] the target is T4, PEAK2^IDR1 phosphorylated by Src (human, UniProt Q86YV5 802-1406, treated with Src kinase in vitro, sites not stated; phosphorylated at the tandem site 14-3-3 motif (RAA(pS)SP) as purified; biotin (EZ-Link NHS-PEG4-Biotin)).
T4 chain: T1 chain

The target in experiment [5] is T5, PEAK1^IDR1 phosphorylated by Src (human, UniProt Q9H792 1082-1746, phosphotyrosine at 1107 (by Src in vitro, MS/MS); biotin (EZ-Link NHS-PEG4-Biotin)).
T5 chain: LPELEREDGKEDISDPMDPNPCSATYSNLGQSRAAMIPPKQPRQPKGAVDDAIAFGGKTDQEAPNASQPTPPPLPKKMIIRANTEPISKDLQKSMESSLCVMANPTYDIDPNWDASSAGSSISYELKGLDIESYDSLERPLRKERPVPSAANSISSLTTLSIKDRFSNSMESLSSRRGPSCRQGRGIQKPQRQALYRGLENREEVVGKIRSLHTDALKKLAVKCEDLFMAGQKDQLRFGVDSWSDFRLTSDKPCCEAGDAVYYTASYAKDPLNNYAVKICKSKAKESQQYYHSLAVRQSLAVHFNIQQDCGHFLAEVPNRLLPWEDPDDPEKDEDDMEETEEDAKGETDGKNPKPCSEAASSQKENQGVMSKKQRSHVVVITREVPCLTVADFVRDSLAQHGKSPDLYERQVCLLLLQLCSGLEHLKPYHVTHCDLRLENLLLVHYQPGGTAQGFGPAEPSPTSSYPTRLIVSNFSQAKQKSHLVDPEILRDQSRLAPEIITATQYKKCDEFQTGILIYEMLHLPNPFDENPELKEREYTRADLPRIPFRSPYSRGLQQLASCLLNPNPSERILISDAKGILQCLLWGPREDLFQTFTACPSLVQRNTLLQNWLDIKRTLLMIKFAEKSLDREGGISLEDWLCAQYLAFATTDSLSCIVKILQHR

A value given as a limit tells only on which side of the number the result lay.

B1: CrkII NSH3 domain (CrkII^NSH3, residues 134–191) (domain or fragment)
chain: AEYVRALFDFNGNDEEDLPFKKGDILRIRDKPEEQWWNAEDSEGKRGMIPVPYVEKYR
As for B1, the dissociation constant Kd in experiment [1] stood at 4.8 µM; in experiment [2] it was 6.8 µM; in experiment [3] it was 3.9 µM.

B2: 14-3-3γ (natural protein)
chain: MVDREQLVQKARLAEQAERYDDMAAAMKNVTELNEPLSNEERNLLSVAYKNVVGARRSSWRVISSIEQKTSADGNEKKIEMVRAYREKIEKELEAVCQDVLSLLDNYLIKNCSETQYESKVFYLKMKGDYYRYLAEVATGEKRATVVESSEKAYSEAHEISKEHMQPTHPIRLGLALNYSVFYYEIQNAPEQACHLAKTAFDDAIAELDTLNEDSYKDSTLIMQLLRDNLTLWTSDQQDDDGGEGNN
In turn, B2 returned a Kd in experiment [2] of less than 1 µM.

B3: CrkII SH2 domain (CrkII^SH2, residues 6–120) (domain or fragment)
chain: DSEERSSWYWGRLSRQEAVALLQGQRHGVFLVRDSSTSPGDYVLSVSENSRVSHYIINSSGPRPPVPPSPAQPPPGVSPSRLRIGDQEFDSLPALLEFYKIHYLDTTTLIEPVSR
modifications: biotin (EZ-Link NHS-PEG4-Biotin) where immobilised for SPR
For the molecule B3, the Kd in experiment [4] was 20.7 µM; in experiment [5], 12.5 µM; in experiment [2], 48.5 µM.

B4: full length CrkII, monomer (CrkII^FL monomer) (natural protein)
chain: MAGNFDSEERSSWYWGRLSRQEAVALLQGQRHGVFLVRDSSTSPGDYVLSVSENSRVSHYIINSSGPRPPVPPSPAQPPPGVSPSRLRIGDQEFDSLPALLEFYKIHYLDTTTLIEPVSRSRQGSGVILRQEEAEYVRALFDFNGNDEEDLPFKKGDILRIRDKPEEQWWNAEDSEGKRGMIPVPYVEKYRPASASVSALIGGNQEGSHPQPLGGPEPGPYAQPSVNTPLPNLQNGPIYARVIQKRVPNAYDKTALALEVGELVKVTKINVSGQWEGECNGKRGHFPFTHVRLLDQQNPDEDFS
modifications: biotin (EZ-Link NHS-PEG4-Biotin) where immobilised for SPR
Regarding B4, the Kd in experiment [4] stood at 2.1 µM.

B5: full length CrkII, dimer (CrkII^FL dimer) (natural protein)
chain: B4 chain
modifications: biotin (EZ-Link NHS-PEG4-Biotin) where immobilised for SPR
The molecule B5 yielded a Kd in experiment [4] of 1.4 µM.

What is called Kd is the concentration at which binding is half-saturated. Lower therefore signals a tighter complex.

The values are drawn from article PMC10279719 (2023).
